In US12338291B2, “Humanized antibody molecules to CD138 and uses thereof” (VISTERRA, INC., priority 2019, dated 2025):

B1: mAb 3821: humanized anti-CD138 antibody; VH SEQ ID NO: 466, VL SEQ ID NO: 476 (antibody, V domains shown)
VH: QVQLVQSGAEVKKPGSSVKVSCKASGYSFSSYYMHWVRQAPGQGLEWMGTIHPSDSTANYNQKFKGRVTITVDKSTSTAYMELSSLRSEDTAVYYCANFVYWGQGTTVTVSS
VL: DIVMTQTPLSLSVTPGQPASISCKSSKSLLYKDGKTYLNWFLQKPGQSPQLLIYVVSTRASGVPDRFSGSGSGTDFTLKISRVEAEDVGVYYCQQLVQYPYTFGQGTKLEIK
B2: mAb 4326: humanized anti-CD138 antibody; VH SEQ ID NO: 471, VL SEQ ID NO: 481 (antibody, V domains shown)
VH: QVQLVQSGAEVKKPGASVKVSCKASGYSFSSYYMHWVRQAPGQGLEWMGTIHPSDSTTNYNQKFQGRVTMTVDTSTRTAYMELSSLRSEDTAVYYCANFVYWGQGTTVTVSS
VL: DIVMTQSPDSLAVSLGERATINCKSSQSLLYKDGKTYLNWFQQKPGQPPKLLIYVVSTRASGVPDRFSGSGSGTDFTLTISSLQAEDVAVYYCQQLVEYPYTFGQGTKLEIK
B3: mAb 4321: humanized anti-CD138 antibody; VH SEQ ID NO: 471, VL SEQ ID NO: 476 (antibody, V domains shown)
VH: QVQLVQSGAEVKKPGASVKVSCKASGYSFSSYYMHWVRQAPGQGLEWMGTIHPSDSTTNYNQKFQGRVTMTVDTSTRTAYMELSSLRSEDTAVYYCANFVYWGQGTTVTVSS
VL: DIVMTQTPLSLSVTPGQPASISCKSSKSLLYKDGKTYLNWFLQKPGQSPQLLIYVVSTRASGVPDRFSGSGSGTDFTLKISRVEAEDVGVYYCQQLVQYPYTFGQGTKLEIK
B4: mAb 3820: humanized anti-CD138 antibody; VH SEQ ID NO: 466, VL SEQ ID NO: 475 (antibody, V domains shown)
VH: QVQLVQSGAEVKKPGSSVKVSCKASGYSFSSYYMHWVRQAPGQGLEWMGTIHPSDSTANYNQKFKGRVTITVDKSTSTAYMELSSLRSEDTAVYYCANFVYWGQGTTVTVSS
VL: DIVMTQTPLSLSVTPGQPASISCKSSKSLLYKDGKTYLNWFLQKPGQSPQLLIYVVSTRASGVPDRFSGSGSGTDFTLKISRVEAEDVGVYYCQQLVEYPYTFGQGTKLEIK
B5: mAb 4521: humanized anti-CD138 antibody; VH SEQ ID NO: 473, VL SEQ ID NO: 476 (antibody, V domains shown)
VH: QVQLVQSGAEVKKPGASVKVSCKASGYNFASYYMHWVRQAPGQGLEWMGTIHPSDSTTNYNQKFKGRVTMTVDTSTSTAYMELSSLRSEDTAVYYCANFVYWGQGTTVTVSS
VL: DIVMTQTPLSLSVTPGQPASISCKSSKSLLYKDGKTYLNWFLQKPGQSPQLLIYVVSTRASGVPDRFSGSGSGTDFTLKISRVEAEDVGVYYCQQLVQYPYTFGQGTKLEIK

Assays:
[1] = system: MM1.S (Luc) cells
Procedure: The mice (N=9 per group) were distributed to ensure that the mean whole-body tumor burden for all groups was within 10% of the overall mean whole-body tumor burden for the study population. Treatment was initiated on day 14 post tumor implant. […] Treatment in all groups was discontinued at Day 53; surviving animals were monitored for an additional 3 weeks out to Day 73 (discontinuation phase of the study).
Whole body tumor burden was monitored by bioluminescence. […] BLI was performed using an IVIS Lumina S5 (PerkinElmer, MA). Animals were imaged five at a time under 1-2% isoflurane gas anesthesia. […] Large binning of the CCD chip was used, and the exposure time was adjusted (5 seconds to 2 minutes) to obtain at least several hundred counts per image and to avoid saturation of the CCD chip Animals were imaged once weekly at staging and on days 14, 21, 29, 36, 43, 53, and 73 (end of study) for all animals remaining on study. Images were analyzed using Living Image 4.7.1 (PerkinElmer, MA) software. Whole body fixed-volume regions of interest (ROIs) were placed on prone and supine images for each individual animal and labeled based on animal identification. Total flux (photons/sec) was calculated and exported for all ROIs to facilitate analyses between groups. The prone and supine ROIs were summed together to estimate whole body tumor burden. Subject ROIs were also placed over each mouse, and region-specific ROIs were placed over spine and hindlimbs for each animal. These ROIs were then quantified independent of the whole-body ROIs in order to calculate signal from only hind limbs or spine.
Primary and secondary efficacy endpoints were generated using in vivo whole body BLI and included tumor burden assessment as described herein. Endpoints included whole body BLI ratio T/C (where T=treatment group and C=vehicle control) measured on each imaging day and reported on day 36 and tumor growth delay as measured as time to tumor burden as pre-defined as a BLI signal of 1.0×10^9 p/s. Additional efficacy endpoints included tumor regression, tumor free survival (TFS), and median life span normalized to vehicle control (% increased life span); this latter endpoint was calculated based on the first day of treatment and not the day of implant. Overall survival was calculated based on animals remaining on study.
Additional measurements included body weights (3× weekly), daily clinical observations and necropsy following euthanasia. Pre-defined euthanasia criteria were related to disease progression and included >20% loss in body weight or disease-related morbidity such as hind limb paralysis, paresthesia, or other signs of severe CNS or musculoskeletal impairment.

[2] = system: CD138+ MM1.S cells; assay: Luciferase-based ADCC reporter assay against MM1.S; type: cell-based, human; conditions: 3-fold dilutions from 10 μg/mL, E:T 10:1, 16 h, FIG. 4
Procedure: (§1) In another experiment, the ADCC activity of the humanized variants of anti-CD138 antibody 2810 was assessed. Briefly, the humanized variant antibodies were produced by transient transfection of HEK 293 cells metabolically altered for purposes of reduced Fc fucosylation. The antibodies were then evaluated for antibody dependent cellular cytotoxicity (ADCC) activity against CD138^+ human lymphoblastic myeloma U266 cells in a luciferase based ADCC reporter assay using, as effector cells, engineered Jurkat cells stably transfected with the human FcγRIIIa receptor. U266 cells were incubated with mAbs that were 3-fold serially diluted from a starting concentration of 3 μg/mL and added to effector cells and CD138+U266 multiple myeloma target cells at a cell ratio of effector:target of 10:1. After 16-hour incubation at 37° C., luciferase activity was assessed as a measure of ADCC activity and reported as relative luminescence units (RLU). ADCC data were plotted using nonlinear regression analysis and a 4-parameter curve fit.
(§2) Second, humanized anti-CD138 antibody variants 3821, 4321, 4320, 4521, 4326, and 3820 were assessed for ADCC activity against U266, MM1.S, LP-1, and RPMI 8226 CD138^+ multiple myeloma cell lines using a luciferase based ADCC reporter assay, as described in Example 15. CD138^+ target cells were incubated with anti-CD138 antibodies that were serially diluted 3-fold starting at a concentration of 10 μg/mL, and subsequently added to FcγRIIIa effector cells at a cell ratio of effector:target cell (E:T of 10:1). After a 16 hour incubation at 37° C., cellular luciferase levels were quantified as a measure of ADCC activity and reported as relative luminescence units (RLU).

[3] = system: CD138+ RPMI 8226 cells; assay: Luciferase-based ADCC reporter assay against RPMI 8226; type: cell-based, human; conditions: 3-fold dilutions from 10 μg/mL, E:T 10:1, 16 h, FIG. 4
Procedure: as §1, §2

[4] = system: CD138+ LP-1 cells; assay: Luciferase-based ADCC reporter assay against LP-1; type: cell-based, human; conditions: 3-fold dilutions from 10 μg/mL, E:T 10:1, 16 h, FIG. 4
Procedure: as §1, §2

[5] = system: CD138+ human lymphoblastic myeloma U266 cells; assay: Luciferase-based ADCC reporter bioassay (Jurkat FcγRIIIa effector cells) against U266; type: cell-based; conditions: 3-fold dilutions from 10 μg/mL, E:T 10:1, 16 h, FIG. 4
Procedure: as §1, §2
Briefly, the two antibodies were evaluated for ADCC activity against CD138^+ human lymphoblastic myeloma U266 cells in a luciferase based ADCC reporter assay using, as effector cells, engineered Jurkat cells stably transfected with the human FcγRIIIa receptor as described in Example 1. This comparison is summarized in FIG. 9B with data normalized as fold-induction of ADCC activity relative to the minus antibody control.

[6] = system: CD138+ LP-1 cells; assay: Antibody binding to LP-1 cells by flow cytometry; set-up: species or system human; conditions: FIG. 3
Procedure: (§3) In one experiment, the humanized variants of monoclonal antibody 2810 were assessed for their capacity to bind to CD138 on the surface of cells. Briefly, the humanized variants of antibody 2810 were produced in HEK 293 cells following transient transfection. The antibodies were then serially diluted three-fold. Antibody binding to membrane CD138 was evaluated using the CD138+ human lymphoblastic myeloma cell line U266 and quantified by flow cytometry. Antibody cell binding was reported as geometric mean fluorescence intensity (MFI). Binding data were plotted using nonlinear regression analysis and a 4-parameter curve fit.
(§4) First, humanized anti-CD138 antibody variants 3821, 4321, 4320, 4521, 4326, and 3820 were evaluated for binding to three different CD138+ multiple myeloma related cell lines: MM1.S, LP-1, and RPMI 8226. Antibody binding was measured by flow cytometry as described in Example 15.

[7] = Differential scanning fluorescence (DSF) thermal stability; type: physicochemical; conditions: PBS pH 7.4, 25-95 °C; for TM1: first thermal transition; for TM2: second thermal transition
Source text: Thermal stability represents an important property of antibodies and is used as a predictive surrogate of pharmaceutical drug stability in humans based on a relative stability profile as characterized by differential thermal melting profiles. Several methods exist for evaluation of product stability based on thermal melting. These include, for example, circular dichroism (CD), differential scanning calorimetry (DSC), and differential scanning fluorescence (DSF), among others. In this example, the thermal stabilities of select humanized anti-CD138 antibodies were evaluated by DSF. DSF was used to monitor the conformational stability of a protein as it was exposed to increasing thermal stress. The dye, SYPRO Orange®, fluoresces in a hydrophobic environment, such as hydrophobic core residues that are exposed during thermally triggered protein unfolding, or denaturation. In brief, SYPRO® Orange Dye (Sigma Chemical) was diluted 1:500 in phosphate buffered saline (PBS), pH 7.4, without addition of any detergents. Antibodies were likewise diluted in PBS to a target concentration of 0.5 mg/mL. 15 μl of diluted antibody and fluorescent dye were added 1:1 (v/v) into a 96 well microtiter plate and thoroughly mixed by repeat pipetting. Thermal scans were carried out using a real-time quantitative PCR (qPCR) thermal cycler with fluorescence detection capabilities. Scans were initiated at 25° C. with incremental increase in well temperature of 1° C. ramp/minute from 25° C. to 95° C. The mid-point (Tm) between native state and the first unfolding event was reported as the transition temperature or melt temperature (TM). TMs were then calculated based on transformation of the data using the first derivative of the fluorescence signal versus time. (dfluoresence/dtime) (FIG. 7).

[8] = system: CD138+ MM1.S cells; assay: Antibody binding to MM1.S cells by flow cytometry; set-up: species or system human; conditions: FIG. 3
Procedure: as §3, §4

[9] = system: CD138+ RPMI 8226 cells; assay: Antibody binding to RPMI 8226 cells by flow cytometry; set-up: species or system human; conditions: FIG. 3
Procedure: as §3, §4

Molecule	Change in body weight ([1]; FIG. 21)	Loss of weight of euthanized animal ([1]; bortezomib single agent, day 23) [%]	Treatment related death ([1]; bortezomib single treatment group, initially 2 mg/kg, early euthanasia day 23) [%]	Survival (animals remaining on study to end of study) ([1]; day 73, treatment discontinued day 53)	Incidence of complete or partial regression ([1]; end of dosing phase)	Tumor growth delay (time to BLI 1.0×10^9 p/s) ([1]; mAb 4320 4 mg/kg, bortezomib 1 mg/kg i.p. twice weekly) [days]	Increase in life span relative to vehicle control ([1]; mAb 4320 4 mg/kg, bortezomib 1 mg/kg i.p. twice weekly, day 14-53) [%]	Tolerability / toxicity ([1]; mouse, in vivo)	ADCC activity (RLU) [2]	ADCC activity (RLU) [3]	ADCC activity (RLU) [4]	ADCC activity (RLU) [5]	Antibody binding by flow cytometry [6]	TM1 [7] [°C]	TM2 [7] [°C]	Antibody binding by flow cytometry [8]	Antibody binding by flow cytometry [9]
CC(C)C[C@H](NC(=O)[C@H](Cc1ccccc1)NC(=O)c1cnccn1)B(O)O [bortezomib, [(1R)-3-Methyl-1-[[(2S)-1-oxo-3-phenyl-2-[(pyrazinylcarbonyl)amino]propyl]amino]butyl]boronic Acid, reference compound]	Loss of body weight	−24	11	none of the animals survived	None	10.6	40	treatment related toxicity was observed	–	–	–	–	–	–	–	–	–
B1	–	–	–	–	–	–	–	–	induced ADCC activity	induced ADCC activity	induced ADCC activity	induced ADCC activity	dose-dependent binding	69.1	77.7	dose-dependent binding	dose-dependent binding
B2	–	–	–	–	–	–	–	–	induced ADCC activity	induced ADCC activity	induced ADCC activity	induced ADCC activity	dose-dependent binding	–	–	dose-dependent binding	dose-dependent binding
B3	–	–	–	–	–	–	–	–	induced ADCC activity	induced ADCC activity	induced ADCC activity	induced ADCC activity	dose-dependent binding	69.3	76.9	dose-dependent binding	dose-dependent binding
B4	–	–	–	–	–	–	–	–	induced ADCC activity	induced ADCC activity	induced ADCC activity	induced ADCC activity	dose-dependent binding	–	–	dose-dependent binding	dose-dependent binding
B5	–	–	–	–	–	–	–	–	induced ADCC activity	induced ADCC activity	induced ADCC activity	induced ADCC activity	dose-dependent binding	–	–	dose-dependent binding	dose-dependent binding
